Source: PMC8861512, “Characterization and Secretory Expression of a Thermostable Tannase from Aureobasidium melanogenum T9: Potential Candidate for Food and Agricultural Industries” (Frontiers in Bioengineering and Biotechnology, 2022)

What was measured:
Test in all cases: purified protein
Type in all cases: biochemical, Aureobasidium melanogenum
Conditions in all cases: standard assay: 100 mM Na2HPO4-citric acid buffer, pH 5.0, 40 °C
[1] = substrate: O=C(O[C@@H]1Cc2c(O)cc(O)cc2O[C@@H]1c1cc(O)c(O)c(O)c1)c1cc(O)c(O)c(O)c1
[2] = substrate: COC(=O)c1cc(O)c(O)c(O)c1
[3] = substrate: O=C(O[C@@H]1Cc2c(O)cc(O)cc2O[C@H]1c1cc(O)c(O)c(O)c1)c1cc(O)c(O)c(O)c1
[4] = substrate: O=C(O[C@@H]1Cc2c(O)cc(O)cc2O[C@@H]1c1ccc(O)c(O)c1)c1cc(O)c(O)c(O)c1
[5] = substrate: CCCOC(=O)c1cc(O)c(O)c(O)c1

B1: TanA (Aureobasidium melanogenum) (protein)
chain: SKDCSKATFQKVIPSNSTFNYVTKVAEGGTFTDAEANANATGLPEGCAVSVKVPTPGNSSYNMAIYMPNKWNSRIITTGNGGYGGFTNWQDLGQYSHYGFSAITTDTGHFNPNVLDSTFALNKGSLENWGWRAMHGSVLVGKALSAAYYGQTHKFSYYSGCSTGGRQGLKEMQVSPDAFDGVFVGAPAWWIPHLSIWTSQATLANLPQNSDHHISAALANVINDEILKQCDPQDGVTDNVIMNPAGCVFNPLTLLCEGAANASACITRPQLDTLYKALHDWTYFDGTLIFPVPSLGTPLVAYIGDSPIPNPMGTGAIEHMLLNTTEPYDWSTFNESVVRLSEAIDPGHGTPDNYDLSTFQKRGGKVIHWHGEADPIIPFRSSSYFYSQVASSVAPHDIEMDSFYKFFPIAGMSHCSGSQYSPWYIAGATQPLTNVSHGVPGFDDAQHNGLLALMRWVENGTAPEQLVATKYNNDDPTKGVYRQRPLCPFPKQPIYTHGNVDSASSWKCS
notes: codon-optimised, signal peptide (first 19 of 528 residues) removed; 6xHis tag kept; secreted by Yarrowia lipolytica, Ni-IDA purified
- Km [1]: 2520 µM
- Km [2]: 2810 µM
- Km [3]: 1860 µM
- Km [4]: 2130 µM
- Km [5]: 1710 µM
